In patent publication US20100184613A1:
Each block holds one binder with its values, some of them ahead of it. Where no end group is shown, it is not given here.

How the values were obtained:
[1] = biological target: antibody P1, specific for the PSA-derived 8-mer PET sequence EPAELTDA; test: peptide competition ELISA; soluble peptide competes with coated target peptide for P1
[2] = biological target: antibody C1, specific for the CRP-derived 8-mer PET sequence YEVQGEVF; test: peptide competition ELISA
[3] = biological target: antibody C1, specific for the CRP-derived 8-mer PET sequence YEVQGEVF; test: peptide competition ELISA; soluble peptide competes with coated target peptide for C1
[4] = biological target: antibody P1, specific for the PSA-derived 8-mer PET sequence EPAELTDA; test: peptide competition ELISA

- IC50 [1]: 0.04 µM
B1: PSA-derived 8-mer PET peptide EPAELTDA (peptide)
peptide: EPAELTDA
modifications: not fully specified

- fold higher concentration without effect, against the antigen PET YEVQGEVF [2]: > 1000 fold
- IC50 [3]: > 1000 µM
B2: nearest-neighbor 8-mer peptide YEVLGEEF (peptide)
peptide: YEVLGEEF

- fold higher concentration without effect, against the antigen PET EPAELTDA [4]: 25000 fold
- IC50 [1]: > 1000 µM
B3: nearest-neighbor 8-mer peptide DPTQLTDA (peptide)
peptide: DPTQLTDA

- fold higher concentration without effect, against the antigen PET YEVQGEVF [2]: > 1000 fold
- IC50 [3]: > 1000 µM
B4: nearest-neighbor 8-mer peptide VEVNGEVF (peptide)
peptide: VEVNGEVF

- IC50 [3]: 1 µM
B5: CRP-derived 8-mer PET peptide YEVQGEVF (peptide)
peptide: YEVQGEVF

- fold higher concentration without effect, against the antigen PET EPAELTDA [4]: 25000 fold
- IC50 [1]: > 1000 µM
B6: nearest-neighbor 8-mer peptide EPVELTSA (peptide)
peptide: EPVELTSA
